The values that follow come from paper PMC10786891, “Massively parallel profiling of RNA-targeting CRISPR-Cas13d”.

Numbering of substitutions follows the chain as printed.

The chains are these.
T1: EsCas13d, nuclease-dead (Eubacterium siraeum, UniProt B0MS50, R295A;H300A;R849A;H854A)
T1 sequence: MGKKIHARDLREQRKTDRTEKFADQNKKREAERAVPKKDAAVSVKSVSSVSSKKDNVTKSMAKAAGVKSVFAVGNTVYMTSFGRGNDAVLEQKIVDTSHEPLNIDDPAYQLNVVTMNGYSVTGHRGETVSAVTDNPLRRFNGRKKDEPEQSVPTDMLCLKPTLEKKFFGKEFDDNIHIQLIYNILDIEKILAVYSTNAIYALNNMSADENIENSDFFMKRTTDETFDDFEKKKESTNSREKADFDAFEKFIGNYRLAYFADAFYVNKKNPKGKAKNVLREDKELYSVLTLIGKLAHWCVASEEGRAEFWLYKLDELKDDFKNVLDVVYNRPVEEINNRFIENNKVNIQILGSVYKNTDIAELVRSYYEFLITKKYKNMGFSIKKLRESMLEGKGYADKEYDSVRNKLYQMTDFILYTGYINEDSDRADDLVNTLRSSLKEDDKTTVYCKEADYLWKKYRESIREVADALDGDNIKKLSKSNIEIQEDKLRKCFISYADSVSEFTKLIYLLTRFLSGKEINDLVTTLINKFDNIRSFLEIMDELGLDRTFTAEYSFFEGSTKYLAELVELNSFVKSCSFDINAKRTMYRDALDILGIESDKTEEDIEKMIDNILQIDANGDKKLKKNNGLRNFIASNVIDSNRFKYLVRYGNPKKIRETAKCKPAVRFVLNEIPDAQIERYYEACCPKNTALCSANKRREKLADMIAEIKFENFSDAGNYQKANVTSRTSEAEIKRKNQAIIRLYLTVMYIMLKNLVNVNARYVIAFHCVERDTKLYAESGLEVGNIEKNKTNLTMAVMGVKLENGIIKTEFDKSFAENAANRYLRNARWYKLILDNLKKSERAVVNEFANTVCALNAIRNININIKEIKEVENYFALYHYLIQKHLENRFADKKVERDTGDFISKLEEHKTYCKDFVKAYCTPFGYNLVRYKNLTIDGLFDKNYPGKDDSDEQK

B1: target 1 MT 5'PFS CAG 3'PFS UCU (mixed)
RNA 1: CACCCGUGCAAAAAUGCAGGGGUCUAAAACUGAGCGGAUAACCUCUCUAUGG
RNA 2: GGGAAUGGAUCCACAUCUACGAAUUCCAGCCAUAGAGAGGUUAUCCGCUCAUCUAGAUCGGAAGAGCACACGU
B2: target 1 MT 5'PFS CAG 3'PFS AUC (mixed)
RNA 1: B1 RNA 1
RNA 2: B1 RNA 2 with U52A, C53U, U54C
B3: target 1 MT 5'PFS GAG 3'PFS UUG (mixed)
RNA 1: B1 RNA 1
RNA 2: B1 RNA 2 with C27G, C53U, U54G
B4: target 1 MT 5'PFS AAA 3'PFS AUU (mixed)
RNA 1: B1 RNA 1
RNA 2: B1 RNA 2 with C27A, G29A, U52A, C53U
B5: target 1 MT 5'PFS AAA 3'PFS AUG (mixed)
RNA 1: B1 RNA 1
RNA 2: B1 RNA 2 with C27A, G29A, U52A, C53U, U54G
B6: target 1 MT 5'PFS GAG 3'PFS UUU (mixed)
RNA 1: B1 RNA 1
RNA 2: B1 RNA 2 with C27G, C53U
B7: target 1 MT 5'PFS AAC 3'PFS CUA (mixed)
RNA 1: B1 RNA 1
RNA 2: B1 RNA 2 with C27A, G29C, U52C, C53U, U54A
B8: target 1 MT 5'PFS ACA 3'PFS AAC (mixed)
RNA 1: B1 RNA 1
RNA 2: B1 RNA 2 with C27A, A28C, G29A, U52A, C53A, U54C
B9: target 1 MT 5'PFS CAG 3'PFS UCC (mixed)
RNA 1: B1 RNA 1
RNA 2: B1 RNA 2 with U54C
B10: target 1 MT 5'PFS CAG 3'PFS AUA (mixed)
RNA 1: B1 RNA 1
RNA 2: B1 RNA 2 with U52A, C53U, U54A
B11: target 1 insG 3' of 14 (mixed)
RNA 1: B1 RNA 1
RNA 2: GGGAAUGGAUCCACAUCUACGAAUUCGUACCAUAGAGAGGGUUAUCCGCUCACCGAGAUCGGAAGAGCACACGU
B12: target 1 MT 5'PFS GCA 3'PFS CGG (mixed)
RNA 1: B1 RNA 1
RNA 2: B1 RNA 2 with C27G, A28C, G29A, U52C, C53G, U54G
B13: target 1 MT 5'PFS GAG 3'PFS CUA (mixed)
RNA 1: B1 RNA 1
RNA 2: B1 RNA 2 with C27G, U52C, C53U, U54A
B14: target 1 MT 5'PFS GCA 3'PFS CGA (mixed)
RNA 1: B1 RNA 1
RNA 2: B1 RNA 2 with C27G, A28C, G29A, U52C, C53G, U54A
B15: target 1 MT 5'PFS CAG 3'PFS UCG (mixed)
RNA 1: B1 RNA 1
RNA 2: B1 RNA 2 with U54G
B16: target 1 MT 5'PFS GGC 3'PFS ACC (mixed)
RNA 1: B1 RNA 1
RNA 2: B1 RNA 2 with C27G, A28G, G29C, U52A, U54C
B17: target 1 MT 5'PFS GAG 3'PFS CUG (mixed)
RNA 1: B1 RNA 1
RNA 2: B1 RNA 2 with C27G, U52C, C53U, U54G

In the data set the target is T1, EsCas13d, nuclease-dead. The data set can be described thus: crRNA (strand 1, pre-loaded); Mg2+; 40 mM Tris-HCl pH 7.5, 150 mM NaCl, 6 mM MgCl2, 1 mM DTT, 0.1% Tween-20, 0.2 mg/ml BSA; 25 C; 10 min per concentration, then washed. The conditions noted are these: tags: His6-TwinStrep-SUMO cleaved; N-terminal SNAP kept (SNAP-Surface 488); label: 3' end held by stalled T7 RNA polymerase.
In turn, B1 yielded a Kd of 19 ± 7 nM. Next, B2: roughly 17.5 nM.

Take B3: the Kd is 9.9 ± 1.85 nM. Next, B4: 28 ± 9.5 nM; B5: 28.5 ± 8 nM.

In turn, B6 showed a Kd of 23 ± 5.5 nM. Molecule B7 yielded a Kd of 39 ± 19.5 nM. Molecule B8 yielded a Kd of 15.3 ± 4.85 nM. On to B9, for which the Kd worked out at 11.9 ± 5.25 nM. In the case of B10 it was 29 ± 13.5 nM; in that of B11, 9.4 ± 0.33 nM; in that of B12, 25 ± 6.5 nM. In the case of B13 it was 40 ± 15 nM; in that of B14, 41 ± 11 nM. Next, B15: 9 ± 1.75 nM; B16: 24.3 ± 5.25 nM. In turn, B17 had a Kd of roughly 23.5 nM.
